Measured values reported in PMC5589798, “Alpha subunit-dependent glycine receptor clustering and regulation of synaptic receptor numbers” (Scientific Reports, 2017).

Experiments:
[1] = target: endogenous α subunits of spinal cord neurons; experiment: PALM-based single molecule counting; fixed lentivirus-infected spinal cord neurons; bursts of Dendra2 detections counted in 120 nm clusters in sparse areas of the extrasynaptic plasma membrane, binomial fit
[2] = target: T1, endogenous GlyRβ subunits of spinal cord neurons ( (endogenous in rat or mouse …, UniProt P20781 23-496)); experiment: as above; details: partners not purified
T1 construct: endogenous glycine receptor beta subunit of cultured spinal cord neurons; also called endogenous counterparts; source: endogenous, cultured spinal cord neurons, fixed cells
T1 sequence (P20781 23-496): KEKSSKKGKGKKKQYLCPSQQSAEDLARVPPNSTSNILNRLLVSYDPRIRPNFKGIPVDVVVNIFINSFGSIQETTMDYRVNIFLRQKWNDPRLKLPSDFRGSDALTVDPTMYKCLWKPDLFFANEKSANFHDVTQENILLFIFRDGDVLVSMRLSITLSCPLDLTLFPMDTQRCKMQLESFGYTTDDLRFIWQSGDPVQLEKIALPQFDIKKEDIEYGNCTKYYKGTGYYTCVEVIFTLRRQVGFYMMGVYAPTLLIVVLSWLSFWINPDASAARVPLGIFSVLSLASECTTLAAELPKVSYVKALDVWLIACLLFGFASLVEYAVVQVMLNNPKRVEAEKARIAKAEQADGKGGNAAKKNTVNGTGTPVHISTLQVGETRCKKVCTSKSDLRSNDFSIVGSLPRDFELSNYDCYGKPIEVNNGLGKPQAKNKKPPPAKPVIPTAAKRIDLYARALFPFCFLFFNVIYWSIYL

[3] = target: T2, untagged GlyRβ (UniProt P48167 23-497); experiment: PALM-based single molecule counting; fixed transfected COS-7 cells; bursts of Dendra2 detections counted in 120 nm clusters, binomial fit; Dendra2-GlyR subunits alone or with untagged subunits; details: partners not purified
T2 construct: glycine receptor beta subunit, untagged; also called untagged β subunits; non-fluorescent subunits; source: COS-7, transfected, in cells
T2 sequence (P48167 23-497): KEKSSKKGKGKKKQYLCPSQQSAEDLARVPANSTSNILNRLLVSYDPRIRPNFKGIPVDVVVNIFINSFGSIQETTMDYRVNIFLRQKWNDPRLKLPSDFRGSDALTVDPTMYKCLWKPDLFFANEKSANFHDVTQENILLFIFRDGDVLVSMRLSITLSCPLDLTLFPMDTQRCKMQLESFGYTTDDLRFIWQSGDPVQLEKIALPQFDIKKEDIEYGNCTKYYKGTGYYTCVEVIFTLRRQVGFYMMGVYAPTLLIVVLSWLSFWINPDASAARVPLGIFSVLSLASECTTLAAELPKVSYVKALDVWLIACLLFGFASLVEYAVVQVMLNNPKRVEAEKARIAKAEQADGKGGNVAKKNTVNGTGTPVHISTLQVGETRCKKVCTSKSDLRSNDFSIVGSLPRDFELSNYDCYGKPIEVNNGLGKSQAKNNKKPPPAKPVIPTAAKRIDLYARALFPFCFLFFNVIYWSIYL

[4] = target: the molecule itself; experiment: PALM-based single molecule counting; fixed COS-7 cells expressing mEos2-gephyrin; cluster diameter 150 nm, burst length < 60 s, binomial fit
[5] = target: T3, endogenous extrasynaptic GlyRs (labelled by QDs on endogenous GlyRα1) (mouse (endogenous in spinal cord …, UniProt Q64018 29-457; P48168 23-496); experiment: PALM-based single molecule counting at QD-labelled receptors; fixed mouse spinal cord neurons; endogenous GlyRα1 labelled with mAb2b and Fab'-QD605, mEos2-gephyrin bursts counted at the QD sites in the extrasynaptic membrane; details: partners not purified
T3 construct: endogenous glycine receptor beta subunit of mouse spinal cord neurons; the discussion calls extrasynaptic GlyRs α3:β2 heteromers; Only the α1 subunit was labelled; also called endogenous GlyRs; receptor complexes; source: endogenous, mouse spinal cord neurons, fixed cells; copies: 3 + 2
T3 sequence (P48168 23-496, one chain of several): as the sequence (P20781 23-496) above, with A23P counted along it

Molecule: Dendra2-GlyRβ (FU-SP-myc-Dendra2-GlyRβ) (from UniProt P48167-1 23-497) (receptor)
- stoichiometry N [1]: 1.5 α:β (3:2)

B1: Dendra2-GlyRα1 (FU-SP-myc-Dendra2-GlyRα1) (receptor, rat, UniProt P07727-1 29-457, looked up)
chain: ARSAPKPMSPSDFLDKLMGRTSGYDARIRPNFKGPPVNVSCNIFINSFGSIAETTMDYRVNIFLRQQWNDPRLAYNEYPDDSLDLDPSMLDSIWKPDLFFANEKGAHFHEITTDNKLLRISRNGNVLYSIRITLTLACPMDLKNFPMDVQTCIMQLESFGYTMNDLIFEWQEQGAVQVADGLTLPQFILKEEKDLRYCTKHYNTGKFTCIEARFHLERQMGYYLIQMYIPSLLIVILSWISFWINMDAAPARVGLGITTVLTMTTQSSGSRASLPKVSYVKAIDIWMAVCLLFVFSALLEYAAVNFVSRQHKELLRFRRKRRHHKSPMLNLFQDDEGGEGRFNFSAYGMGPACLQAKDGISVKGANNNNTTNPAPAPSKSPEEMRKLFIQRAKKIDKISRIGFPMAFLIFNMFYWIIYKIVRREDVHNK
notes: rat glycine receptor alpha-1 subunit, isoform a; Five copies hold for the homomeric receptor (expressed alone in COS-7); also called homomeric Dendra2-GlyRα1; source: COS-7, transfected (FuGENE 6), in cells; spinal cord neurons, lentivirus infected, in cells; not shown: myc, N-terminal, kept; Dendra2, N-terminal, kept
- stoichiometry N [2]: 1.5 α:β (3:2)

B2: Dendra2-GlyRα3 (FU-SP-myc-Dendra2-GlyRα3L) (receptor, human, UniProt O75311-1 34-464, looked up)
chain: ARSRSAPMSPSDFLDKLMGRTSGYDARIRPNFKGPPVNVTCNIFINSFGSIAETTMDYRVNIFLRQKWNDPRLAYSEYPDDSLDLDPSMLDSIWKPDLFFANEKGANFHEVTTDNKLLRIFKNGNVLYSIRLTLTLSCPMDLKNFPMDVQTCIMQLESFGYTMNDLIFEWQDEAPVQVAEGLTLPQFLLKEEKDLRYCTKHYNTGKFTCIEVRFHLERQMGYYLIQMYIPSLLIVILSWVSFWINMDAAPARVALGITTVLTMTTQSSGSRASLPKVSYVKAIDIWMAVCLLFVFSALLEYAAVNFVSRQHKELLRFRRKRKNKTEAFALEKFYRFSDMDDEVRESRFSFTAYGMGPCLQAKDGMTPKGPNHPVQVMPKSPDEMRKVFIDRAKKIDTISRACFPLAFLIFNIFYWVIYKILRHEDIHQQQD
notes: human glycine receptor alpha-3 subunit, long isoform (α3L); Five copies hold for the homomeric receptor (expressed alone in COS-7); also called homomeric Dendra2-GlyRα3; source: COS-7, transfected (FuGENE 6), in cells; spinal cord neurons, lentivirus infected, in cells; not shown: myc, N-terminal, kept; Dendra2, N-terminal, kept
- stoichiometry N [3]: 3 α3 subunits per complex
- stoichiometry N [2]: 1.5 α:β (3:2)

B3: mEos2-gephyrin (FU-mEos2-gephyrin) (natural protein, UniProt Q03555 1-768, looked up)
chain: MATEGMILTNHDHQIRVGVLTVSDSCFRNLAEDRSGINLKDLVQDPSLLGGTISAYKIVPDEIEEIKETLIDWCDEKELNLILTTGGTGFAPRDVTPEKFPTFPFCGLQKGATKEVIEREAPGMALAMLMGSLNVTPLGMLSRPVCGIRGKTLIINLPGSKKGSQECFQFILPALPHAIDLLRDAIVKVKEVHDELEDLPSPPPPLSPPPTTSPHKQTEDKGVQCEEEEEEKKDSGVASTEDSSSSHITAAALAAKIPDSIISRGVQVLPRDTASLSTTPSESPRAQATSRLSTASCPTPKQIRRPDESKGVASRVGSLKVQSRCSSKENILRASHSAVDITKVARRHRMSPFPLTSMDKAFITVLEMTPVLGTEIINYRDGMGRVLAQDVYAKDNLPPFPASVKDGYAVRAADGPGDRFIIGESQAGEQPTQTVMPGQVMRVTTGAPIPCGADAVVQVEDTELIRESDDGTEELEVRILVQARPGQDIRPIGHDIKRGECVLAKGTHMGPSEIGLLATVGVTEVEVNKFPVVAVMSTGNELLNPEDDLLPGKIRDSNRSTLLATIQEHGYPTINLGIVGDNPDDLLNALNEGISRADVIITSGGVSMGEKDYLKQVLDIDLHAQIHFGRVFMKPGLPTTFATLDIDGVRKIIFALPGNPVSAVVTCNLFVVPALRKMQGILDPRPTIIKARLSCDVKLDPRPEYHRCILTWHHQEPLPWAQSTGNQMSSRLMSMRSANGLLMLPPKTEQYVELHKGEVVDVMVIGRL
notes: gephyrin; neither species nor isoform is stated; In neurons, endogenous gephyrin is also present and dilutes the detected mEos2-gephyrin; source: COS-7, transfected, in cells; spinal cord neurons, lentivirus infected, in cells
- stoichiometry N [4]: 3
- stoichiometry N [5]: 1 gephyrin trimer per receptor complex
